According to patent US20190083585:

T1: Suc-APE-pNA
T1 chain: APE

T2: Suc-APR-pNA
T2 chain: APR

T3: fluorescently quenched α-gliadin hexapeptide analogue QXL520-PQPQLP-K(5-FAM)-NH2
T3 chain: PQPQLP


Target: T1, Suc-APE-pNA

Protein | Catalytic Efficiency (kcat/KM)
Kumamolisin-As (wild type) (protein) AAPTAYTPLDVAQAYQFPEGLDGQGQCIAIIELGGGYDEASLAQYFASLGVPAPQVVSVSVDGASNQPTGDPSGPDGEVELDIEVAGALAPGAKFAVYFAPNTDAGFLDAITTAIHDPTLKPSVVSISWGGPEDSWTSAAIAAMNRAFLDAAALGVTVLAAAGDSGSTDGEQDGLYHVDFPAASPYVLACGGTRLVASGGRIAQETVWNDGPDGGATGGGVSRIFPLPAWQEHANVPPSANPGASSGRGVPDLAGNADPATGYEVVIDGEATVIGGTSAVAPLFAALVARINQKLGKAVGYLNPTLYQLPADVFHDITEGNNDIANRAQIYQAGPGWDPCTGLGSPIGVRLLQALLPSASQPQPGSTENLYFQSGALEHHHHHH | 4 M⁻¹ s⁻¹

Target: T2, Suc-APR-pNA

Protein | Catalytic Efficiency (kcat/KM)
Kumamolisin-As (wild type) (protein) AAPTAYTPLDVAQAYQFPEGLDGQGQCIAIIELGGGYDEASLAQYFASLGVPAPQVVSVSVDGASNQPTGDPSGPDGEVELDIEVAGALAPGAKFAVYFAPNTDAGFLDAITTAIHDPTLKPSVVSISWGGPEDSWTSAAIAAMNRAFLDAAALGVTVLAAAGDSGSTDGEQDGLYHVDFPAASPYVLACGGTRLVASGGRIAQETVWNDGPDGGATGGGVSRIFPLPAWQEHANVPPSANPGASSGRGVPDLAGNADPATGYEVVIDGEATVIGGTSAVAPLFAALVARINQKLGKAVGYLNPTLYQLPADVFHDITEGNNDIANRAQIYQAGPGWDPCTGLGSPIGVRLLQALLPSASQPQPGSTENLYFQSGALEHHHHHH | 132 M⁻¹ s⁻¹

Target: T3, fluorescently quenched α-gliadin …

Protein | Catalytic Efficiency (kcat/KM) | Fold Change in Activity of PQ Hydrolysis Relative to Wild Type Kumamolysin-As
Kumamolisin-As (wild type) (protein) AAPTAYTPLDVAQAYQFPEGLDGQGQCIAIIELGGGYDEASLAQYFASLGVPAPQVVSVSVDGASNQPTGDPSGPDGEVELDIEVAGALAPGAKFAVYFAPNTDAGFLDAITTAIHDPTLKPSVVSISWGGPEDSWTSAAIAAMNRAFLDAAALGVTVLAAAGDSGSTDGEQDGLYHVDFPAASPYVLACGGTRLVASGGRIAQETVWNDGPDGGATGGGVSRIFPLPAWQEHANVPPSANPGASSGRGVPDLAGNADPATGYEVVIDGEATVIGGTSAVAPLFAALVARINQKLGKAVGYLNPTLYQLPADVFHDITEGNNDIANRAQIYQAGPGWDPCTGLGSPIGVRLLQALLPSASQPQPGSTENLYFQSGALEHHHHHH | 4.9 M⁻¹ s⁻¹ | 1 fold
Kumamolisin-As G319S, S354N, D358G, D368H (protein) AAPTAYTPLDVAQAYQFPEGLDGQGQCIAIIELGGGYDEASLAQYFASLGVPAPQVVSVSVDGASNQPTGDPSGPDGEVELDIEVAGALAPGAKFAVYFAPNTDAGFLDAITTAIHDPTLKPSVVSISWSGPEDSWTSAAIAAMNRAFLDAAALGVTVLAAAGDNGSTGGEQDGLYHVHFPAASPYVLACGGTRLVASGGRIAQETVWNDGPDGGATGGGVSRIFPLPAWQEHANVPPSANPGASSGRGVPDLAGNADPATGYEVVIDGEATVIGGTSAVAPLFAALVARINQKLGKAVGYLNPTLYQLPADVFHDITEGNNDIANRAQIYQAGPGWDPCTGLGSPIGVRLLQALLPSASQPQPGSTENLYFQSGALEHHHHHH |  | 5 fold
Kumamolisin-As D358N (protein) AAPTAYTPLDVAQAYQFPEGLDGQGQCIAIIELGGGYDEASLAQYFASLGVPAPQVVSVSVDGASNQPTGDPSGPDGEVELDIEVAGALAPGAKFAVYFAPNTDAGFLDAITTAIHDPTLKPSVVSISWGGPEDSWTSAAIAAMNRAFLDAAALGVTVLAAAGDSGSTNGEQDGLYHVDFPAASPYVLACGGTRLVASGGRIAQETVWNDGPDGGATGGGVSRIFPLPAWQEHANVPPSANPGASSGRGVPDLAGNADPATGYEVVIDGEATVIGGTSAVAPLFAALVARINQKLGKAVGYLNPTLYQLPADVFHDITEGNNDIANRAQIYQAGPGWDPCTGLGSPIGVRLLQALLPSASQPQPGSTENLYFQSGALEHHHHHH |  | 4 fold
Kumamolisin-As D358G (protein) AAPTAYTPLDVAQAYQFPEGLDGQGQCIAIIELGGGYDEASLAQYFASLGVPAPQVVSVSVDGASNQPTGDPSGPDGEVELDIEVAGALAPGAKFAVYFAPNTDAGFLDAITTAIHDPTLKPSVVSISWGGPEDSWTSAAIAAMNRAFLDAAALGVTVLAAAGDSGSTGGEQDGLYHVDFPAASPYVLACGGTRLVASGGRIAQETVWNDGPDGGATGGGVSRIFPLPAWQEHANVPPSANPGASSGRGVPDLAGNADPATGYEVVIDGEATVIGGTSAVAPLFAALVARINQKLGKAVGYLNPTLYQLPADVFHDITEGNNDIANRAQIYQAGPGWDPCTGLGSPIGVRLLQALLPSASQPQPGSTENLYFQSGALEHHHHHH |  | 3 fold
Kumamolisin-As N291D, G319S, S354N, D358G, D368H (protein) AAPTAYTPLDVAQAYQFPEGLDGQGQCIAIIELGGGYDEASLAQYFASLGVPAPQVVSVSVDGASNQPTGDPSGPDGEVELDIEVAGALAPGAKFAVYFAPDTDAGFLDAITTAIHDPTLKPSVVSISWSGPEDSWTSAAIAAMNRAFLDAAALGVTVLAAAGDNGSTGGEQDGLYHVHFPAASPYVLACGGTRLVASGGRIAQETVWNDGPDGGATGGGVSRIFPLPAWQEHANVPPSANPGASSGRGVPDLAGNADPATGYEVVIDGEATVIGGTSAVAPLFAALVARINQKLGKAVGYLNPTLYQLPADVFHDITEGNNDIANRAQIYQAGPGWDPCTGLGSPIGVRLLQALLPSASQPQPGSTENLYFQSGALEHHHHHH |  | 54.6 fold
Kumamolisin-As T357A (protein) AAPTAYTPLDVAQAYQFPEGLDGQGQCIAIIELGGGYDEASLAQYFASLGVPAPQVVSVSVDGASNQPTGDPSGPDGEVELDIEVAGALAPGAKFAVYFAPNTDAGFLDAITTAIHDPTLKPSVVSISWGGPEDSWTSAAIAAMNRAFLDAAALGVTVLAAAGDSGSADGEQDGLYHVDFPAASPYVLACGGTRLVASGGRIAQETVWNDGPDGGATGGGVSRIFPLPAWQEHANVPPSANPGASSGRGVPDLAGNADPATGYEVVIDGEATVIGGTSAVAPLFAALVARINQKLGKAVGYLNPTLYQLPADVFHDITEGNNDIANRAQIYQAGPGWDPCTGLGSPIGVRLLQALLPSASQPQPGSTENLYFQSGALEHHHHHH |  | 2 fold
Kumamolisin-As D358G, D368H (protein) AAPTAYTPLDVAQAYQFPEGLDGQGQCIAIIELGGGYDEASLAQYFASLGVPAPQVVSVSVDGASNQPTGDPSGPDGEVELDIEVAGALAPGAKFAVYFAPNTDAGFLDAITTAIHDPTLKPSVVSISWGGPEDSWTSAAIAAMNRAFLDAAALGVTVLAAAGDSGSTGGEQDGLYHVHFPAASPYVLACGGTRLVASGGRIAQETVWNDGPDGGATGGGVSRIFPLPAWQEHANVPPSANPGASSGRGVPDLAGNADPATGYEVVIDGEATVIGGTSAVAPLFAALVARINQKLGKAVGYLNPTLYQLPADVFHDITEGNNDIANRAQIYQAGPGWDPCTGLGSPIGVRLLQALLPSASQPQPGSTENLYFQSGALEHHHHHH |  | 6 fold
Kumamolisin-As N291D, G319S, D358G, D368H (protein) AAPTAYTPLDVAQAYQFPEGLDGQGQCIAIIELGGGYDEASLAQYFASLGVPAPQVVSVSVDGASNQPTGDPSGPDGEVELDIEVAGALAPGAKFAVYFAPDTDAGFLDAITTAIHDPTLKPSVVSISWSGPEDSWTSAAIAAMNRAFLDAAALGVTVLAAAGDSGSTGGEQDGLYHVHFPAASPYVLACGGTRLVASGGRIAQETVWNDGPDGGATGGGVSRIFPLPAWQEHANVPPSANPGASSGRGVPDLAGNADPATGYEVVIDGEATVIGGTSAVAPLFAALVARINQKLGKAVGYLNPTLYQLPADVFHDITEGNNDIANRAQIYQAGPGWDPCTGLGSPIGVRLLQALLPSASQPQPGSTENLYFQSGALEHHHHHH |  | 93 fold
Kumamolisin-As S262K, D293N, N291D, G319S, D358G, D368H (protein) AAPTAYTPLDVAQAYQFPEGLDGQGQCIAIIELGGGYDEASLAQYFASLGVPAPQVVSVSVDGASNQPTGDPKGPDGEVELDIEVAGALAPGAKFAVYFAPDTNAGFLDAITTAIHDPTLKPSVVSISWSGPEDSWTSAAIAAMNRAFLDAAALGVTVLAAAGDSGSTGGEQDGLYHVHFPAASPYVLACGGTRLVASGGRIAQETVWNDGPDGGATGGGVSRIFPLPAWQEHANVPPSANPGASSGRGVPDLAGNADPATGYEVVIDGEATVIGGTSAVAPLFAALVARINQKLGKAVGYLNPTLYQLPADVFHDITEGNNDIANRAQIYQAGPGWDPCTGLGSPIGVRLLQALLPSASQPQPGSTENLYFQSGALEHHHHHH |  | 62 fold
Kumamolisin-As G319S, D358G, D368H (protein) AAPTAYTPLDVAQAYQFPEGLDGQGQCIAIIELGGGYDEASLAQYFASLGVPAPQVVSVSVDGASNQPTGDPSGPDGEVELDIEVAGALAPGAKFAVYFAPNTDAGFLDAITTAIHDPTLKPSVVSISWSGPEDSWTSAAIAAMNRAFLDAAALGVTVLAAAGDSGSTGGEQDGLYHVHFPAASPYVLACGGTRLVASGGRIAQETVWNDGPDGGATGGGVSRIFPLPAWQEHANVPPSANPGASSGRGVPDLAGNADPATGYEVVIDGEATVIGGTSAVAPLFAALVARINQKLGKAVGYLNPTLYQLPADVFHDITEGNNDIANRAQIYQAGPGWDPCTGLGSPIGVRLLQALLPSASQPQPGSTENLYFQSGALEHHHHHH |  | 7 fold
Kumamolisin-As D293T, N291D, G319S, D358G, D368H (protein) AAPTAYTPLDVAQAYQFPEGLDGQGQCIAIIELGGGYDEASLAQYFASLGVPAPQVVSVSVDGASNQPTGDPSGPDGEVELDIEVAGALAPGAKFAVYFAPDTTAGFLDAITTAIHDPTLKPSVVSISWSGPEDSWTSAAIAAMNRAFLDAAALGVTVLAAAGDSGSTGGEQDGLYHVHFPAASPYVLACGGTRLVASGGRIAQETVWNDGPDGGATGGGVSRIFPLPAWQEHANVPPSANPGASSGRGVPDLAGNADPATGYEVVIDGEATVIGGTSAVAPLFAALVARINQKLGKAVGYLNPTLYQLPADVFHDITEGNNDIANRAQIYQAGPGWDPCTGLGSPIGVRLLQALLPSASQPQPGSTENLYFQSGALEHHHHHH |  | 58 fold
Kumamolisin-As D293A (protein) AAPTAYTPLDVAQAYQFPEGLDGQGQCIAIIELGGGYDEASLAQYFASLGVPAPQVVSVSVDGASNQPTGDPSGPDGEVELDIEVAGALAPGAKFAVYFAPNTAAGFLDAITTAIHDPTLKPSVVSISWGGPEDSWTSAAIAAMNRAFLDAAALGVTVLAAAGDSGSTDGEQDGLYHVDFPAASPYVLACGGTRLVASGGRIAQETVWNDGPDGGATGGGVSRIFPLPAWQEHANVPPSANPGASSGRGVPDLAGNADPATGYEVVIDGEATVIGGTSAVAPLFAALVARINQKLGKAVGYLNPTLYQLPADVFHDITEGNNDIANRAQIYQAGPGWDPCTGLGSPIGVRLLQALLPSASQPQPGSTENLYFQSGALEHHHHHH |  | 3 fold
Kumamolisin-As N291D, D293A, G319S, S354N, D358G, Q361D, D368H (protein) AAPTAYTPLDVAQAYQFPEGLDGQGQCIAIIELGGGYDEASLAQYFASLGVPAPQVVSVSVDGASNQPTGDPSGPDGEVELDIEVAGALAPGAKFAVYFAPDTAAGFLDAITTAIHDPTLKPSVVSISWSGPEDSWTSAAIAAMNRAFLDAAALGVTVLAAAGDNGSTGGEDDGLYHVHFPAASPYVLACGGTRLVASGGRIAQETVWNDGPDGGATGGGVSRIFPLPAWQEHANVPPSANPGASSGRGVPDLAGNADPATGYEVVIDGEATVIGGTSAVAPLFAALVARINQKLGKAVGYLNPTLYQLPADVFHDITEGNNDIANRAQIYQAGPGWDPCTGLGSPIGVRLLQALLPSASQPQPGSTENLYFQSGALEHHHHHH |  | 58 fold
Kumamolisin-As G319S, D368S (protein) AAPTAYTPLDVAQAYQFPEGLDGQGQCIAIIELGGGYDEASLAQYFASLGVPAPQVVSVSVDGASNQPTGDPSGPDGEVELDIEVAGALAPGAKFAVYFAPNTDAGFLDAITTAIHDPTLKPSVVSISWSGPEDSWTSAAIAAMNRAFLDAAALGVTVLAAAGDSGSTDGEQDGLYHVSFPAASPYVLACGGTRLVASGGRIAQETVWNDGPDGGATGGGVSRIFPLPAWQEHANVPPSANPGASSGRGVPDLAGNADPATGYEVVIDGEATVIGGTSAVAPLFAALVARINQKLGKAVGYLNPTLYQLPADVFHDITEGNNDIANRAQIYQAGPGWDPCTGLGSPIGVRLLQALLPSASQPQPGSTENLYFQSGALEHHHHHH |  | 2 fold
